Data: PMC8546545

How the values were obtained:
[1] = biological target: OdhI (Oxoglutarate dehydrogenase Inhibitor), FHA substrate of PknG (Corynebacterium glutamicum) (UniProt Q8NQJ3)
[2] = biological target: OdhI (Oxoglutarate dehydrogenase Inhibitor), FHA substrate of PknG (Corynebacterium glutamicum) (UniProt Q8NQJ3); remark: listed apart in the source

UniProt Q8NQJ3, sequence (Q8NQJ3 whole entry): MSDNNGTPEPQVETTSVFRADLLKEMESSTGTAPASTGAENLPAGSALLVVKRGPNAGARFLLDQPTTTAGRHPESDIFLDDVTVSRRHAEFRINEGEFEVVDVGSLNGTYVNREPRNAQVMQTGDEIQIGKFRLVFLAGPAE

Substance	kinase activity ([γ-32P]ATP) against OdhI compared to the full-length enzyme (phosphorylation of the 17-mer peptide unaffected) [1] [fold lower]	kinase activity ([γ-32P]ATP) of CgPknG toward OdhI (25 μM) compared with the 17-mer peptide substrate lacking an FHA domain (330 μM) [2] [fold]
CgPknG deletion mutant lacking residues 1 to 129 and 434 to 822 (domain or fragment)	7	–
Ser/Thr protein kinase PknG from Corynebacterium glutamicum, full length (enzyme)	–	45
